Laboratory results: US20130330346A1 (Novartis, published 2013)

T1: Cynomolgus CXCR2 (cynomolgus, UniProt Q28519 3-353 (rhesus entry))
T1 construct: On transfected HEK293T or RBL-2H3 cells; native on cynomolgus neutrophils in the WBSC assay; also called cCXCR2; cynoCXCR2
T1 chain: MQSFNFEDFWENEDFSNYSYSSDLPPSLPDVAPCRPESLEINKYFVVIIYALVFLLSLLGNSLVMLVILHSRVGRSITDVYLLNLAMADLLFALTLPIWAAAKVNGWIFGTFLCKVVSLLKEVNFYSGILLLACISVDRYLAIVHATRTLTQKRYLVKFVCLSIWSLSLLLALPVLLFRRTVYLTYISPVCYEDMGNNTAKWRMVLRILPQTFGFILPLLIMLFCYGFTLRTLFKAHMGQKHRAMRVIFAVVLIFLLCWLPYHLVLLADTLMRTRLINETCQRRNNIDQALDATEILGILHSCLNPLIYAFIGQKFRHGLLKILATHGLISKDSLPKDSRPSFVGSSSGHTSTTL

T2: Human CXCR2 (human, UniProt P25025 1-360)
T2 construct: Some cell lines carry an N-terminal 3xHA tag; also called hCXCR2; huCXCR2
T2 sequence: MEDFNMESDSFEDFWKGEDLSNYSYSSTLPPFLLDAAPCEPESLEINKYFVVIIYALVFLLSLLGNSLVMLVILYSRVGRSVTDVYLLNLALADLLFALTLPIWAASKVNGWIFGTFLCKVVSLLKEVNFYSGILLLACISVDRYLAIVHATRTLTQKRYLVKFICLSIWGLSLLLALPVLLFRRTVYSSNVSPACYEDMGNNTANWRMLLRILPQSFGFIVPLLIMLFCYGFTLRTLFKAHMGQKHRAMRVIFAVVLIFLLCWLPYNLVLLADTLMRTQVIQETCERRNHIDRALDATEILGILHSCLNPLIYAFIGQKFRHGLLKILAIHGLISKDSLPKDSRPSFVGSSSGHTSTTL

B1: CXCR20013 (bispecific antibody)
chain: EVQLVESGGELVQPGGSLRLSCAASGSILTINAMGWYRQAPGKQRELVVRRTRGGSTTYQDSVKGRFTISADIAKKTMYLQMNSLKPEDTAVYYCMLDDRGGVYWGQGTQVTVSSGGGGSGGGGSGGGGSGGGGSGGGGSGGGGSGGGGSEVQLVESGGGLVQPGGSLRLSCVASGSIVRINTMGWYRQTPGKQRELVADITSGGNINYIDAVKGRFTISRDNTKNTVYLQMNSLKPEDTAVYYCNAEIVVLVGVWTQRARTGNYWGQGTQVTVSS
notes: Biparatopic: two VHH joined by a GlySer linker; also called 2B2-35GS-97A9; not shown: C-terminal c-myc tag and His6 tag coded by pAX100
B2: CXCR20011 (VHH)
chain: EVQLVESGGGLVQPGGSLRLSCVASGSIVRINTMGWYRQTPGKQRELVADITSGGNINYIDAVKGRFTISRDNTKNTVYLQMNSLKPEDTAVYYCNAEIVVLVGVWTQRARTGNYWGQGTQVTVSSGGGGSGGGGSGGGGSGGGGSGGGGSGGGGSGGGGSEVQLVESGGGLVQPGGSLRLSCVASGSIVRINTMGWYRQTPGKQRELVADITSGGNINYIDAVKGRFTISRDNTKNTVYLQMNSLKPEDTAVYYCNAEIVVLVGVWTQRARTGNYWGQGTQVTVSS
notes: Bivalent: two VHH joined by a GlySer linker; also called 97A9-35GS-97A9; not shown: C-terminal c-myc tag and His6 tag coded by pAX100
B3: CXCR20027 (bispecific antibody)
chain: EVQLVESGGGLVQPGGSLRLSCVASGRIFSSNAMGWFRQAPGKEREFVAAITWRSGGSAYYADSAKGRFTISRDNAKNTVYLQMNSLKPEDTAVYYCAAGGSSWLSFPPDYWGQGTQVTVSSGGGGSGGGGSGGGGSGGGGSGGGGSGGGGSGGGGSEVQLVESGGGLVQAGGSLRLSCAASGRTFSDYAMGWFRQAPGKEREFVAAITWNGGRVFYTASVKGRFTISRDNAKNTMYLQMNSLKPEDTAVYYCAADKDRRTDYLGHPVAYWGQGTQVTVSS
notes: Two different VHH joined by a GlySer linker; also called 163E3-35GS-163D2; not shown: C-terminal c-myc tag and His6 tag coded by pAX100
B4: CXCR20015 (other)
chain: EVQLVESGGELVQPGGSLRLSCAASGSILTINAMGWYRQAPGKQRELVVRRTRGGSTTYQDSVKGRFTISADIAKKTMYLQMNSLKPEDTAVYYCMLDDRGGVYWGQGTQVTVSSGGGGSGGGGSGGGGSGGGGSGGGGSGGGGSGGGGSEVQLVESGGGLVQPGGSVRLSCVASGIIFRLSALGWTRQGPGKAREWVAGINSDGTTNYADPVKGRFTISRDNAKNTIYLHMDMLKPEDTAVYYCASGKYRGQGTQVTVSS
notes: Two different VHH joined by a GlySer linker; also called 2B2-35GS-137B7; not shown: C-terminal c-myc tag and His6 tag coded by pAX100
B5: CXCR20018 (other)
chain: EVQLVESGGGLVQPGGSVRLSCVASGIIFRLSALGWTRQGPGKAREWVAGINSDGTTNYADPVKGRFTISRDNAKNTIYLHMDMLKPEDTAVYYCASGKYRGQGTQVTVSSGGGGSGGGGSGGGGSGGGGSGGGGSGGGGSGGGGSEVQLVESGGGLVQPGGSLRLSCVASGSIVRINTMGWYRQTPGKQRELVADITSGGNINYIDAVKGRFTISRDNTKNTVYLQMNSLKPEDTAVYYCNAEIVVLVGVWTQRARTGNYWGQGTQVTVSS
notes: Two different VHH joined by a GlySer linker; also called 137B7-35GS-97A9; not shown: C-terminal c-myc tag and His6 tag coded by pAX100
B6: CXCR20029 (other)
chain: EVQLVESGGGLVQPGGSLRLSCVASGRIFSSNAMGWFRQAPGKEREFVAAITWRSGGSAYYADSAKGRFTISRDNAKNTVYLQMNSLKPEDTAVYYCAAGGSSWLSFPPDYWGQGTQVTVSSGGGGSGGGGSGGGGSGGGGSGGGGSGGGGSGGGGSEVQLVESGGGLVQAGGSLTLSCAVSGSTFRINTMGWYRRAPGKQRELVAARDRGGYINYVDSVKGRFTVSRDNAKPTMYLQMNSLKPEDTAVYYCHAGTQDRTGRNFDRWGQGTQVTVSS
notes: Biparatopic: two VHH joined by a GlySer linker; also called 163E3-35GS-54B12; not shown: C-terminal c-myc tag and His6 tag coded by pAX100
B7: CXCR20019 (VHH)
chain: EVQLVESGGELVQPGGSLRLSCAASGSILTINAMGWYRQAPGKQRELVVRRTRGGSTTYQDSVKGRFTISADIAKKTMYLQMNSLKPEDTAVYYCMLDDRGGVYWGQGTQVTVSSGGGGSGGGSEVQLVESGGELVQPGGSLRLSCAASGSILTINAMGWYRQAPGKQRELVVRRTRGGSTTYQDSVKGRFTISADIAKKTMYLQMNSLKPEDTAVYYCMLDDRGGVYWGQGTQVTVSS
notes: Bivalent: two VHH joined by a 9GS linker; also called 2B2-9GS-2B2; not shown: C-terminal c-myc tag and His6 tag coded by pAX100
B8: CXCR20016 (other)
chain: EVQLVESGGGLVQPGGSVRLSCVASGIIFRLSALGWTRQGPGKAREWVAGINSDGTTNYADPVKGRFTISRDNAKNTIYLHMDMLKPEDTAVYYCASGKYRGQGTQVTVSSGGGGSGGGGSGGGGSGGGGSGGGGSGGGGSGGGGSEVQLVESGGELVQPGGSLRLSCAASGSILTINAMGWYRQAPGKQRELVVRRTRGGSTTYQDSVKGRFTISADIAKKTMYLQMNSLKPEDTAVYYCMLDDRGGVYWGQGTQVTVSS
notes: Two different VHH joined by a GlySer linker; also called 137B7-35GS-2B2; not shown: C-terminal c-myc tag and His6 tag coded by pAX100
B9: CXCR20036 (other)
chain: EVQLVESGGGLVQAGGSLTLSCAVSGSTFRINTMGWYRRAPGKQRELVAARDRGGYINYVDSVKGRFTVSRDNAKPTMYLQMNSLKPEDTAVYYCHAGTQDRTGRNFDRWGQGTQVTVSSGGGGSGGGGSGGGGSGGGGSGGGGSGGGGSGGGGSEVQLVESGGGLVQAGGSLRLSCAASGRTFSDYAMGWFRQAPGKEREFVAAITWNGGRVFYTASVKGRFTISRDNAKNTMYLQMNSLKPEDTAVYYCAADKDRRTDYLGHPVAYWGQGTQVTVSS
notes: Biparatopic: two VHH joined by a GlySer linker; also called 54B12-35GS-163D2; 54B12-163D2; not shown: C-terminal c-myc tag and His6 tag coded by pAX100
B10: CXCR20012 (other)
chain: EVQLVESGGGLVQPGGSVRLSCVASGIIFRLSALGWTRQGPGKAREWVAGINSDGTTNYADPVKGRFTISRDNAKNTIYLHMDMLKPEDTAVYYCASGKYRGQGTQVTVSSGGGGSGGGGSGGGGSGGGGSGGGGSGGGGSGGGGSEVQLVESGGGLVQPGGSVRLSCVASGIIFRLSALGWTRQGPGKAREWVAGINSDGTTNYADPVKGRFTISRDNAKNTIYLHMDMLKPEDTAVYYCASGKYRGQGTQVTVSS
notes: Bivalent: two VHH joined by a GlySer linker; also called 137B7-35GS-137B7; not shown: C-terminal c-myc tag and His6 tag coded by pAX100

Molecular target: T1, Cynomolgus CXCR2
Test: FACS competition vs 3 nM FMAT-Blue Gro-α
Method: (§1) Multivalent anti-CXCR2Nanobodies were titrated against 3 nM FMAT-Blue-labeled Gro-α in the FACS ligand competition assay on human and cynomolgus CXCR2 (Table 14). On human CXCR2, blocking potencies range between double digit nM and sub-nM whereas on cynomolgus CXCR2, they range between single and double digit nM.

Binder	% inhibition of max	IC50
B1	98.5%	4.2 nM
B2	60%	97.4 nM
B3	97%	6.42 nM
B4	81.5%	99 nM
B5	47%	50.8 nM
B6	98.5%	2.09 nM
B7	81%	1.8 nM
B8	88%	5.7 nM
B9	98%	2.27 nM

molecular target: T2, Human CXCR2; test: FACS competition vs 3 nM FMAT-Blue Gro-α
Method: as §1

Binder	% inhibition of max	IC50
B1	90%	0.9 nM
B2	99%	35.2 nM
B3	100%	4.9 nM
B4	99%	0.7 nM
B5	98%	1.9 nM
B6	98.5%	1.13 nM
B7	50.6%	0.044 nM
B8	100%	0.8 nM
B10	99.1%	0.606 nM
B9	98%	0.7 nM

Molecular target: T1, Cynomolgus CXCR2
Test: cell-based or functional assay

Binder	FLIPR % inhibition of max	FLIPR IC50 (GRO-α induced calcium release)
B1	100%	29.2 nM
B3	100%	12.7 nM
B4	100%	2870 nM
B6	100%	10.1 nM
B8	100%	1100 nM
B9	100%	4.27 nM

molecular target: T2, Human CXCR2; test: cell-based or functional assay

Binder	FLIPR % inhibition of max	FLIPR IC50 (GRO-α induced calcium release)
B1	100%	2.93 nM
B2	100%	137 nM
B3	100%	17.8 nM
B4	100%	2.78 nM
B6	100%	17.1 nM
B8	100%	2.36 nM
B9	100%	7.86 nM
